Data on two molecules can be found in article PMC3293900, “Single Cycle Structure-Based Humanization of an Anti-Nerve Growth Factor Therapeutic Antibody” (PLoS ONE, 2012).

Test [1] deals with T1, human Nerve Growth Factor (Homo sapiens, UniProt P01138).
T1 construct: human Nerve Growth Factor (beta-NGF), mature growth factor; also called hNGF; human NGF; source: obtained according to Covaceuszach et al. [77]
The test is described as follows: SPR; BIACore; hNGF amine-coupled on CM5 chips (89, 93, 100 RU); Fab hum-αD11 0.39-25 nM injected in HBSEP pH 7.4 with 100 µg/ml BSA, 50 µl/min; triplicate; apparent constants. The note with it: both partners purified.

Test [2] deals with T1, human Nerve Growth Factor. As to the kind of experiment: SPR; BIACore; rat mAb αD11 amine-coupled on CM5 chips (1025, 1040, 1280 RU); hNGF 0.29-37.5 nM injected in PBS with 0.005% Surfactant P20, 30 µl/min; triplicate; apparent constants. The following applies: both partners purified.

T1 sequence (P01138 122-241): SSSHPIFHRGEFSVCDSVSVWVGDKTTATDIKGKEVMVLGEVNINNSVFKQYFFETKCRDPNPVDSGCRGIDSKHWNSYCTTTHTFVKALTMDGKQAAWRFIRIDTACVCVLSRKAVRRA

B1: Fab fragment of the humanized anti-NGF antibody hum-αD11 (Fab, V domains shown)
VH: EVQLVESGGGLVQPGGSLRLSCAASGFSLTNNNVNWVRQAPGKGLEWVGGVWAGGATDYNSALKSRFTISRDNSKNTAYLQMNSLRAEDTAVYYCARDGGYSSSTLYAMDAWGQGTLVTVSS
VL: DIQMTQSPSSLSASVGDRVTITCRASEDIYNALAWYQQKPGKAPKLLIYNTDTLHTGVPSRFSGSGSGTDYTLTISSLQPEDFATYFCQHYFHYPRTFGQGTKVEIK
notes: as the VH of m3 (hum-αD11 VH); constant part of the Fab heavy chain; not described for the Fab provided by PanGenetics; as the Vκ of m3 (hum-αD11 Vκ); positions L46 and L87 mutated to the rat αD11 residue, Kabat numbering; constant part of the Fab light chain; also called Fab hum-αD11; source: kindly provided by PanGenetics UK Ltd
Take B1: in test [1], the Ka was found to be 3.4e+10 M⁻¹ and the Kd is 0.0289 ± 0.0041 nM.

B2: rat anti-NGF monoclonal antibody (mAb) αD11 (antibody, V domains shown)
VH: QVQLKESGPGLVQPSQTLSLTCTVSGFSLTNNNVNWVRQATGRGLEWMGGVWAGGATDYNSALKSRLTITRDTSKSQVFLKMHSLQSEDTATYYCARDGGYSSSTLYAMDAWGQGTTVTVSA
VL: DIQMTQSPASLSASLGETVTIECRASEDIYNALAWYQQKPGKSPQLLIYNTDTLHTGVPSRFSGSGSGTQYSLKINSLQSEDVASYFCQHYFHYPRTFGGGTKLELK
notes: VH of rat αD11; rat heavy chain constant region; the CH1 part is in PDB 1ZAN (Fab); light chain of rat αD11; whole light chain in PDB 1ZAN (Fab αD11); Whole rat IgG; also called parental mAb αD11; rat αD11
For the molecule B2, in test [2], the Ka was 2.21e+09 M⁻¹ and the Kd came to 0.451 ± 0.045 nM.
